The target of the experiment is Full-length recombinant human SIRT1 (human) (UniProt Q96EB6).

The source of these data is PMC7922766.

Chain of UniProt Q96EB6 (Q96EB6 whole entry): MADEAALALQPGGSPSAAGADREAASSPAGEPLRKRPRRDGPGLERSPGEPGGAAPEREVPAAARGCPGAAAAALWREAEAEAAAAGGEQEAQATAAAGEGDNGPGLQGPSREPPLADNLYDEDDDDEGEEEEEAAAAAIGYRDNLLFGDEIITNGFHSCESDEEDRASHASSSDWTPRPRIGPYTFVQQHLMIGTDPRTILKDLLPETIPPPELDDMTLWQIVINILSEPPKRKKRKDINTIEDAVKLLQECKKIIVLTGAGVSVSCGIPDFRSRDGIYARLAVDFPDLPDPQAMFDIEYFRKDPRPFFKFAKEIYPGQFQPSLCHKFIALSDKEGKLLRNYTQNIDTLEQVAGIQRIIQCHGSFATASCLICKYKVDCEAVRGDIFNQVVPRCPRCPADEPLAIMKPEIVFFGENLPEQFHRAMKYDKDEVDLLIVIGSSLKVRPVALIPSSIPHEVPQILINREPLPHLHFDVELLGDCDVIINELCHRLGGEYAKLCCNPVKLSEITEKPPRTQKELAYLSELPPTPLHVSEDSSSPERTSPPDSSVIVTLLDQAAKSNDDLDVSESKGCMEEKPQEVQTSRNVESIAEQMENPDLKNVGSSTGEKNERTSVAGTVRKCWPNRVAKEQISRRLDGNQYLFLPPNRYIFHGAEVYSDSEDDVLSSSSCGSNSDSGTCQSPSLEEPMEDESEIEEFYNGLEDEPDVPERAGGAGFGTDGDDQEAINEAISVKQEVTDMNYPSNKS

As for H4K16Ac synthetic peptide, the Km of the peptide substrate in SIRT1-catalysed deacetylation (HPLC assay, 500 uM NAD+, 0.5 uM SIRT1, 100 mM phosphate pH 7.5, 37 °C) amounted to 46.4 µM.
